Source: the supplement of paper PMC11780869

Tested on: Bacillus subtilis
Test: cleaved RNA product abundance (RNA/gDNA barcode ratio) relative to median wild-type variant (ratio to wild type); higher = more accumulation of the downstream cleavage product
Conditions: cleavage site: cggR-gapA (positions -7 to +36 mutated)
Outline: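 Cleaved product abundance for each construct is its RNA-to-gDNA barcode ratio, scaled to the median construct carrying the unmutated site. Cleaved RNA was isolated on a gel, reverse transcribed and barcode-sequenced, with genomic DNA barcodes sequenced alongside and UMIs collapsed. The reporters were truncated aprE or tetM mRNAs with barcoded, mutagenized RNase Y cleavage-site windows integrated into the B. subtilis chromosome, and cultures grew in LB at 37°C from OD600 0.0003 to 0.3.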

[1] = experiment (reporter, strain, medium): exp 2b: truncated aprE reporter, strain BJT200
[2] = experiment (reporter, strain, medium): exp 4a: truncated aprE reporter, strain BJT201 with 2% xylose (RNase J1 expressed)

Sequence	cleaved RNA product abundance [1]	cleaved RNA product abundance [2]	cleaved RNA product abundance (experiment (reporter, strain, medium): exp 6: tetM reporter, strain 168)
ACAGACGAAGGAGCCGCAAAGAAGTTATTAAGGGATGAATATTCCCTCACTATAAATATCTCTCACTTATTTAAA	0.121	–	–
ACAGACGAAGGAGCCGCAAAGAAGTTATTAAGGGATGAATATTCCCTCATTATAAATATCTCTCACTTATTTAAA	–	0.316	–
ACAGACGAAGGAGCCGCAAAGAAGTTATTAAGGGATGAATATTCCCTCCATATAAATATCTCTCACTTATTTAAA	–	0.193	–
ACAGACGAAGGAGCCGCAAAGAAGTTATTAAGGGATGAATATTCCCTTAATATAAATATCTCTCACTTATTTAAA	1.01	0.526	–
ACAGACGAAGGAGCCGCAAAGAAGTTATTAAGGGATGAATATTCCGTCAATATAAATATCTCTCACTTATTTAAA	–	0.194	–
ACAGACGAAGGAGCCGCAAAGAAGTTATTAAGGGATGAATATTCCTTCAATATAAATATCTCTCACTTATTTAAA	–	0.546	–
ACAGACGAAGGAGCCGCAAAGAAGTTATTAAGGGATGAATATTCGCTCAATATAAATATCTCTCACTTATTTAAA	–	0.086	–
ACAGACGAAGGAGCCGCAAAGAAGTTATTAAGGGATGAATATTCTCTCAATATAAATATCTCTCACTTATTTAAA	0.265	0.343	–
ACAGACGAAGGAGCCGCAAAGAAGTTATTAAGGGATGAATATTGCCTCAATATAAATATCTCTCACTTATTTAAA	–	0.107	–
ACAGACGAAGGAGCCGCAAAGAAGTTATTAAGGGATGAATATTTCCTCAATATAAATATCTCTCACTTATTTAAA	0.188	0.186	–
ACAGACGAAGGAGCCGCAAAGAAGTTATTAAGGGATGAATCAGCCCTCAATATAAATATCTCTCACTTATTTAAA	–	0.813	–
ACAGACGAAGGAGCCGCAAAGAAGTTATTAAGGGATGAATCATACCTCAATATAAATATCTCTCACTTATTTAAA	0.164	0.215	–
ACAGACGAAGGAGCCGCAAAGAAGTTATTAAGGGATGAATCATCCATCAATATAAATATCTCTCACTTATTTAAA	–	0.219	–
ACAGACGAAGGAGCCGCAAAGAAGTTATTAAGGGATGAATCATCCCACAATATAAATATCTCTCACTTATTTAAA	0.21	0.192	–
ACAGACGAAGGAGCCGCAAAGAAGTTATTAAGGGATGAATCATCCCCCAATATAAATATCTCTCACTTATTTAAA	–	0.296	–
ACAGACGAAGGAGCCGCAAAGAAGTTATTAAGGGATGAATCATCCCTAAATATAAATATCTCTCACTTATTTAAA	0.597	1	–
ACAGACGAAGGAGCCGCAAAGAAGTTATTAAGGGATGAATCATCCCTCAAGATAAATATCTCTCACTTATTTAAA	–	0.27	–
ACAGACGAAGGAGCCGCAAAGAAGTTATTAAGGGATGAATCATCCCTCAATAAAAATATCTCTCACTTATTTAAA	–	0.197	–
ACAGACGAAGGAGCCGCAAAGAAGTTATTAAGGGATGAATCATCCCTCAATATAAATAACTCTCACTTATTTAAA	–	0.573	–
ACAGACGAAGGAGCCGCAAAGAAGTTATTAAGGGATGAATCATCCCTCAATATAAATATCTCTCACTTATTTAAA	0.721	0.902	0.917
ACAGACGAAGGAGCCGCAAAGAAGTTATTAAGGGATGAATCATCCCTCAATTTAAATATCTCTCACTTATTTAAA	0.169	–	–
ACAGACGAAGGAGCCGCAAAGAAGTTATTAAGGGATGAATCATCCCTCACTATAAATATCTCTCACTTATTTAAA	–	0.22	–
ACAGACGAAGGAGCCGCAAAGAAGTTATTAAGGGATGAATCATCCCTTAATATAAATATCTCTCACTTATTTAAA	–	0.46	–
ACAGACGAAGGAGCCGCAAAGAAGTTATTAAGGGATGAATCATCTCTCAATATAAATATCTCTCACTTATTTAAA	–	0.595	–
ACAGACGAAGGAGCCGCAAAGAAGTTATTAAGGGATGAATCATGCCTCAATATAAATATCTCTCACTTATTTAAA	0.164	0.251	–
